From patent US20160194394A1 (GOVERNING COUNCIL OF THE UNIVERSITY OF TORONTO, published 2016)
Positions count from the first letter of the chain named.

B1: B10 (Fab)
light: DIQMTQSPSSLSASVGDRVTITCRASQSVSSAVAWYQQKPGKAPKLLIYSASSLYSGVPSRFSGSRSGTDFTLTISSLQPEDFATYYCQQGSVWLFTFGQGTKVEIKRTVAAPSVFIFPPSDSQLKSGTASVVCLLNNFYPREAKVQWKVDNALQSGNSQESVTEQDSKDSTYSLSSTLTLSKADYEKHKVYACEVTHQGLSSPVTKSFNRGECGGS
heavy: EVQLVESGGGLVQPGGSLRLSCAASGFNISSSSMHWVRQAPGKGLEWVASISSSSSYTYYADSVKGRFTISADTSKNTAYLQMNSLRAEDTAVYYCARYGSHWSPSYSGWYYYSYALDYWGQGTLVTVSSASTKGPSVFPLAPSSKSTSGGTAALGCLVKDYFPEPVTVSWNSGALTSGVHTFPAVLQSSGLYSLSSVVTVPSSSLGTQTYICNVNHKPSNTKVDKKVEPKSC
notes: selection round 2; not the round 3 clone B10 (f30); also called Fzd7-R2-B10
B2: G4 (Fab)
light: B1 light with G91A, S92Y, V93A, W94Y, F96I
heavy: EVQLVESGGGLVQPGGSLRLSCAASGFNISYSSMHWVRQAPGKGLEWVASISSSYGYTYYADSVKGRFTISADTSKNTAYLQMNSLRAEDTAVYYCARSGGHFYYWYVAAAMDYWGQGTLVTVSSASTKGPSVFPLAPSSKSTSGGTAALGCLVKDYFPEPVTVSWNSGALTSGVHTFPAVLQSSGLYSLSSVVTVPSSSLGTQTYICNVNHKPSNTKVDKKVEPKSC
notes: selection round 2; same four CDRs as Fzd7-R2-B2 (f22); also called Fzd7-R2-G4
B3: E9 (Fab)
light: DIQMTQSPSSLSASVGDRVTITCRASQSVSSAVAWYQQKPGKAPKLLIYSASSLYSGVPSRFSGSRSGTDFTLTISSLQPEDFATYYCQQSYVGGPFTFGQGTKVEIKRTVAAPSVFIFPPSDSQLKSGTASVVCLLNNFYPREAKVQWKVDNALQSGNSQESVTEQDSKDSTYSLSSTLTLSKADYEKHKVYACEVTHQGLSSPVTKSFNRGECGGS
heavy: EVQLVESGGGLVQPGGSLRLSCAASGFNISYYSMHWVRQAPGKGLEWVASISSSYSSTYYADSVKGRFTISADTSKNTAYLQMNSLRAEDTAVYYCARGYWYVYVGWGAYYGPVGMDYWGQGTLVTVSSASTKGPSVFPLAPSSKSTSGGTAALGCLVKDYFPEPVTVSWNSGALTSGVHTFPAVLQSSGLYSLSSVVTVPSSSLGTQTYICNVNHKPSNTKVDKKVEPKSC
notes: selection round 2; not the round 3 clone E9 (f29); also called Fzd7-R2-E9
B4: E5 (Fab)
light: B1 light with G91A, V93W, W94Y, L95P, F96I
heavy: EVQLVESGGGLVQPGGSLRLSCAASGFNIYSSSMHWVRQAPGKGLEWVASIYSSYGYTSYADSVKGRFTISADTSKNTAYLQMNSLRAEDTAVYYCARPGYWGYYWGAYGMDYWGQGTLVTVSSASTKGPSVFPLAPSSKSTSGGTAALGCLVKDYFPEPVTVSWNSGALTSGVHTFPAVLQSSGLYSLSSVVTVPSSSLGTQTYICNVNHKPSNTKVDKKVEPKSC
notes: selection round 2; also called Fzd7-R2-E5
B5: F12 (Fab)
light: DIQMTQSPSSLSASVGDRVTITCRASQSVSSAVAWYQQKPGKAPKLLIYSASSLYSGVPSRFSGSRSGTDFTLTISSLQPEDFATYYCQQAYAPFTFGQGTKVEIKRTVAAPSVFIFPPSDSQLKSGTASVVCLLNNFYPREAKVQWKVDNALQSGNSQESVTEQDSKDSTYSLSSTLTLSKADYEKHKVYACEVTHQGLSSPVTKSFNRGECGGS
heavy: EVQLVESGGGLVQPGGSLRLSCAASGFNISYSYMHWVRQAPGKGLEWVASIYSSYSYTSYADSVKGRFTISADTSKNTAYLQMNSLRAEDTAVYYCARSSAWFGHAGFGGAMDYWGQGTLVTVSSASTKGPSVFPLAPSSKSTSGGTAALGCLVKDYFPEPVTVSWNSGALTSGVHTFPAVLQSSGLYSLSSVVTVPSSSLGTQTYICNVNHKPSNTKVDKKVEPKSC
notes: selection round 2; also called Fzd7-R2-F12
B6: D7 (Fab)
light: B3 light with G94Y, G95Y, P96L, F97I
heavy: EVQLVESGGGLVQPGGSLRLSCAASGFNISYYSMHWVRQAPGKGLEWVAYIYPYSSYTYYADSVKGRFTISADTSKNTAYLQMNSLRAEDTAVYYCARYHGFYGMDYWGQGTLVTVSSASTKGPSVFPLAPSSKSTSGGTAALGCLVKDYFPEPVTVSWNSGALTSGVHTFPAVLQSSGLYSLSSVVTVPSSSLGTQTYICNVNHKPSNTKVDKKVEPKSC
notes: selection round 2; also called Fzd7-R2-D7
B7: C10 (Fab)
light: DIQMTQSPSSLSASVGDRVTITCRASQSVSSAVAWYQQKPGKAPKLLIYSASSLYSGVPSRFSGSRSGTDFTLTISSLQPEDFATYYCQQSAWWASLFTFGQGTKVEIKRTVAAPSVFIFPPSDSQLKSGTASVVCLLNNFYPREAKVQWKVDNALQSGNSQESVTEQDSKDSTYSLSSTLTLSKADYEKHKVYACEVTHQGLSSPVTKSFNRGECGGS
heavy: EVQLVESGGGLVQPGGSLRLSCAASGFNISSYSIHWVRQAPGKGLEWVASIYPYSSYTYYADSVKGRFTISADTSKNTAYLQMNSLRAEDTAVYYCARYSGFAMDYWGQGTLVTVSSASTKGPSVFPLAPSSKSTSGGTAALGCLVKDYFPEPVTVSWNSGALTSGVHTFPAVLQSSGLYSLSSVVTVPSSSLGTQTYICNVNHKPSNTKVDKKVEPKSC
notes: selection round 2; also called Fzd7-R2-C10
B8: E11 (Fab)
light: B7 light with S91Y, A92S, W93Y, W94G, A95Y, S96A
heavy: EVQLVESGGGLVQPGGSLRLSCAASGFNLSSYYMHWVRQAPGKGLEWVASIYPYYSYTYYADSVKGRFTISADTSKNTAYLQMNSLRAEDTAVYYCARYWSGFDYWGQGTLVTVSSASTKGPSVFPLAPSSKSTSGGTAALGCLVKDYFPEPVTVSWNSGALTSGVHTFPAVLQSSGLYSLSSVVTVPSSSLGTQTYICNVNHKPSNTKVDKKVEPKSC
notes: selection round 2; also called Fzd7-R2-E11
B9: F9 (Fab)
light: B7 light with S91W, A92Y, W93Y, W94G, A95W, S96H, F98I
heavy: B7 heavy with S31Y, Y32S, Y54S, S55Y, S56G, S100G, G101Y, A103G
notes: selection round 2; also called Fzd7-R2-F9
B10: G1 (Fab)
light: B3 light with S91W, Y92G, V93Y, G95A, P96L, F97I
heavy: EVQLVESGGGLVQPGGSLRLSCAASGFNISYSSIHWVRQAPGKGLEWVASIYPSPGYTSYADSVKGRFTISADTSKNTAYLQMNSLRAEDTAVYYCARHGWYGLDYWGQGTLVTVSSASTKGPSVFPLAPSSKSTSGGTAALGCLVKDYFPEPVTVSWNSGALTSGVHTFPAVLQSSGLYSLSSVVTVPSSSLGTQTYICNVNHKPSNTKVDKKVEPKSC
notes: selection round 2; same four CDRs as Fzd7-R2-G12 (f18); also called Fzd7-R2-G1

molecular target: T1, recombinant Frizzled receptor 7 (FZD7) cysteine-rich domain (CRD) fused to the Fc region of human IgG (human, UniProt O75084 33-185); assay: ELISA, 1ug/ml (20nM) Fab
Protocol: (§1) FIG. 2B is a table depicting the binding of purified Fabs to purified FZD7-Fc measured by ELISA. Fabs purified from 25 ml bacterial cultures were assayed for binding to FZD7-Fc fusion protein (R&D systems) and Fc protein. ELISA plates (384 well) were coated with 2 ug/ml of protein in PBS overnight at four degrees. Wells were blocked with 0.5% BSA/PBS for 1 hour at room temperature, washed three times with 0.05% Tween20/PBS (wash buffer), and then primary dilutions of Fabs in 0.5% BSA/0.05% Tween20/PBS (dilution buffer) were added at indicated concentrations. Fabs were incubated for 1 hour at room temperature, wells were washed six times, and anti-FLAG-HRP (Sigma) was added at 1:5000 in dilution buffer. Secondary antibody was incubated for 45 minutes at room temperature, and wells were washed six times and developed with TMB substrate with an acid stop. The absorbance at 450 nm was read. n.t.=not tested.

Binder	OD 450
B1	2.82
B2	3.15
B3	3.15
B4	3.17
B5	1.05
B6	3.22
B7	0.37
B8	3.24
B9	3.11
B10	3.17

molecular target: T2, Fc control protein; assay: ELISA, 1ug/ml (20nM) Fab
T2 construct: also called Fc protein; control Fc protein
Protocol: as §1

Binder	OD 450
B1	0.06
B2	0.05
B3	0.05
B4	0.07
B5	0.08
B6	0.07
B7	0.07
B8	0.05
B9	0.06
B10	0.05

molecular target: T1, recombinant Frizzled receptor 7 (FZD7) …; assay: ELISA, 10ug/ml (200nM) Fab
Protocol: as §1

Binder	OD 450
B1	2.99
B2	3.17
B3	3.22
B4	3.17
B5	3.11
B6	3.18
B7	2.05
B8	3.22
B9	3.16
B10	3.18

molecular target: T2, Fc control protein; assay: ELISA, 10ug/ml (200nM) Fab
Protocol: as §1

Binder	OD 450
B1	0.06
B2	0.07
B3	0.07
B4	0.06
B5	0.06
B6	0.07
B7	0.06
B8	0.06
B9	0.06
B10	0.05

molecular target: T3, FZD7 receptor expressed on cells (full-length) (UniProt O75084 33-574, limits assumed); assay: flow cytometry, 200 nM Fab, MDA MB 231
T3 construct: whole, on cells; MDA MB 231 cells may carry other Frizzled receptors too; also called full-length FZD7 receptor; endogenous receptor on MDA MB 231 cells
Protocol: (§2) FIG. 3 is a table depicting the binding of the purified Fabs to cells expressing FZD7 (flow cytometry). Small scale Fabs were assayed for binding to full-length FZD7 receptor to an over-expression line in MDA MB 231 cells. In parallel, Fabs were assayed for binding to endogenous receptor expressed on the MDA MB 231 cells. Cells were harvested using an EDTA solution, blocked in 2% FBS/PBS (stain buffer), and stained with 200 nM Fab for 30 min on ice. Cells were washed two times with stain buffer and incubated with anti-F(ab′)₂-APC secondary antibody (Jackson Immuno) at 1:1000 for 15 minutes on ice. All antibodies were diluted in stain buffer. Cells were washed three times with stain buffer and then fixed with 1% paraformaldehye for analysis by flow cytometry. […] The percent of the cell population within the positive gates is indicated.

Binder	% population within the positive gate [%]
B1	35
B2	5.1
B3	99.4
B4	6.3
B5	1.4
B6	1.7
B7	0.9
B8	99.2
B9	50.3
B10	28.6

molecular target: T3, FZD7 receptor expressed on cells …; assay: flow cytometry, 200 nM Fab, FZD7 over-expression line (MDA MB 231)
Protocol: as §2

Binder	% population within the positive gate [%]
B1	88.4
B2	85.4
B3	90.7
B4	86.2
B5	59.9
B6	75.7
B7	50.5
B8	94.2
B9	88.3
B10	83.4
